Laboratory results from patent US20210038648A1 (THOMAS JEFFERSON UNIVERSITY, published 2021).

Columns and labels:
[1] = target: T1, human GUCY2C (hGUCY2C) on cells (human, UniProt P25092 24-1073); experiment: flow cytometry on CT26.hGUCY2C cells
T1 construct: whole, on cells; also called guanylyl cyclase C; GCC
Source text: Cells were authenticated by the original suppliers and routinely authenticated by morphology, growth, antibiotic resistance (where appropriate GUCY2C and β-galactosidase expression, and pattern of metastasis in vivo and routinely screened for mycoplasma using the Universal Mycoplasma Detection Kit (ATCC, Cat. No. 30-1012K). Before injection into mice, cells were routinely cultured for <2weeks. The gene encoding human GUCY2C was codon-optimized and synthesized (Gene Art, Life Technologies) and cloned into the retroviral construct pMSCVpuro (Clontech). CT26.hGUCY2C and CT26.CL25.hGUCY2C were generated by transducing CT26 and CT26.CL25 cells with retroviral supernatants encoding hGUCY2C, followed by selection with puromycin. […] The single chain variable fragment (scFv) from the human GUCY2C-specific antibody 5F9 was cloned into the pFUSE-rIgG-Fc2 (IL2ss) plasmid (Invivogen), producing a 5F9 scFv fusion protein with rabbit Fc (5F9-rFc), 5F9-rFc was collected in supernatants of transfected 293F cells (Life Technologies), titrated in ELISA plates (Nunc-Immuno PolySorp) coated with BSA or recombinant 6×His-tagged hGUCY2C extracellular domain (6×His-hGUCY2CECD) protein purified under contract from HEK293-6E cells by GenScript and detected with HRP-conjugated goat anti-rabbit (Jackson ImmunoResearch). […]

[2] = target: T2, recombinant 6xHis-tagged hGUCY2C extracellular domain (6xHis-hGUCY2CECD) (human, UniProt P25092 24-430); experiment: ELISA; plate coated with 6xHis-hGUCY2CECD, 5F9-rFc titrated
T2 construct: extracellular domain; also called purified hGUCY2C extracellular domain; immobilized hGUCY2CECD protein; not shown: 6xHis tag
T2 sequence (P25092 24-430): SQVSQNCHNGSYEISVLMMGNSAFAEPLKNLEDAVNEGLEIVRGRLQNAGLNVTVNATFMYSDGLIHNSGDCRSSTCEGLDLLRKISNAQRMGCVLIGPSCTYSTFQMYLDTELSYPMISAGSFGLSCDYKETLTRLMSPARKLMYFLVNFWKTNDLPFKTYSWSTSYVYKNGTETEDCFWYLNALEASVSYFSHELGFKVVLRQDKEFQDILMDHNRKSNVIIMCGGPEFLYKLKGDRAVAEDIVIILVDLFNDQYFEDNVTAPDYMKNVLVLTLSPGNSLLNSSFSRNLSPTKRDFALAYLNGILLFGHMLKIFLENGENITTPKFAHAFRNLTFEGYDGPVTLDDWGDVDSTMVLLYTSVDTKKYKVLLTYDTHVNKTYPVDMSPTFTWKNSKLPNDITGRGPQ

T1 sequence (P25092 24-1073): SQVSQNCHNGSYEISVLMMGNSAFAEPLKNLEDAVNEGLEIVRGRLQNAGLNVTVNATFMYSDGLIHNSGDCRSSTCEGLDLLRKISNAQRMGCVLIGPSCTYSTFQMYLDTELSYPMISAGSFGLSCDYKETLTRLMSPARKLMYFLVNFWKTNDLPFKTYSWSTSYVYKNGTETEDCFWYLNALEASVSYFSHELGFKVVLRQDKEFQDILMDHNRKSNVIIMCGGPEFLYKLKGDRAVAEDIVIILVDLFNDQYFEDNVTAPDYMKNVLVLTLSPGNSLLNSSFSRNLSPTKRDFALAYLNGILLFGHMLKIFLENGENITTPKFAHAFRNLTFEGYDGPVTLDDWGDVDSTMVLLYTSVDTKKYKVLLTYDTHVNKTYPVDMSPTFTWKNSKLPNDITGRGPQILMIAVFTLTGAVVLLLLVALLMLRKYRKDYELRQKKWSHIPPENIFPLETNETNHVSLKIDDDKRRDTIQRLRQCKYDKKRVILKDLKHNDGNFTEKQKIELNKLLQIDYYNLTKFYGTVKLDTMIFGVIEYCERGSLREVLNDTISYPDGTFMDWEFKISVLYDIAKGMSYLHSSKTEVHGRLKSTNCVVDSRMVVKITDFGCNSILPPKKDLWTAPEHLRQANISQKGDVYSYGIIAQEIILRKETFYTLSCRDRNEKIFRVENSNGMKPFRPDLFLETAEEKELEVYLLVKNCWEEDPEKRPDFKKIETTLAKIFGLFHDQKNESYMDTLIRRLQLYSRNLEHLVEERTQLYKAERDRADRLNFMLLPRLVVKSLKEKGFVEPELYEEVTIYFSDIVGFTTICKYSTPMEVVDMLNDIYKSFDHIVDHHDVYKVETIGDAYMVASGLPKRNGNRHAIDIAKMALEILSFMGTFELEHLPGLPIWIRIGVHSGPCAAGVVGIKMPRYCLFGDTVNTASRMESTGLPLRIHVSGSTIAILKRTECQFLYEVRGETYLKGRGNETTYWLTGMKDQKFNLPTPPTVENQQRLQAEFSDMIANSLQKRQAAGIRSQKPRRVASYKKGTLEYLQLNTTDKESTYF

B1: 5F9 scFv fusion protein with rabbit Fc (5F9-rFc) (Fc fusion)
chain: EIVMTQSPATLSVSPGERATLSCRASQSVSRNLAWYQQKPGQAPRLLIYGASTRATGIPARFSGSGSGTEFTLTIGSLQSEDFAVYYCQQYKTWPRTFGQGTNVEIKASGGGGSGGGGSGGGGSGGGGSELQVQLQQWGAGLLKPSETLSLTCAVFGGSFSGYYWSWIRQPPGKGLEWIGEINHRGNTNDNPSLKSRVTISVDTSKNQFALKLSSVTAADTAVYYCARERGYTYGNFDHWGQGTLVTVSS
notes: Secreted from transfected 293F cells and used as supernatant; also called recombinant 5F9 antibody; 5F9 antibody; not shown: rabbit IgG Fc from plasmid pFUSE-rIgG-Fc2 (IL2ss) (Invivogen)
binding result [1]: binds | binding result [2]: binds
